Reference: article PMC12207366, “Protonated Glutamate and Aspartate Side Chains Can Recognize Phosphodiester Groups via Strong and Short Hydrogen Bonds in Biomacromolecular Complexes” (Angewandte Chemie (International Ed. in English), 2025)

Target: Glu218 (UniProt position 218, RALAEEKGLEF)
Test: ITC
Settings: 20 °C, 200 mM NaCl, 50 mM Tris (pH 8.5-7.5), 50 mM BisTris (pH 7.0-6.0) or 50 mM Na-acetate (pH 5.5-4.0), each with 1 mM beta-mercaptoethanol

Question: With “PilF GSPII-B domain (PilF159-302) Q218E (Thermus thermophilus; Q218E)” as the substance, how does the pKa (c-di-GMP-bound protein (pKab of the thermodynamic cycle)) read?
Answer: Its pKa is 7.1.

Question: And the pKa (ligand-free protein (pKaf of the thermodynamic cycle))?
Answer: Its pKa is 5.9.
